Assay [1] deals with epidermal growth factor receptor, endogenous in A431 cell lysate (human (endogenous in A431)) (UniProt P00533). As to the kind of experiment: ELISA.
Assay [2] addresses epidermal growth factor receptor, endogenous in A431 cell lysate (human (endogenous in A431), UniProt P00533 25-1210). Description: ELISA.

In assay [1], “amphiregulin, recombinant (from UniProt P15514 20-187) (ligand)” showed a Kd of 217 nM.

B1: bovine RNase A (enzyme, UniProt P61823 27-150, looked up)
chain: KETAAAKFERQHMDSSTSAASSSNYCNQMMKSRNLTKDRCKPVNTFVHESLADVQAVCSQKNVACKNGQTNCYQSYSTMSITDCRETGSSKYPNCAYKTTQANKHIIVACEGNPYVPVHFDASV
Regarding B1, binding in assay [2] was characterised by a dissociation constant (Kd) of 885 nM.
